Target: T1, Cyp33 RRM domain (1–83) (UniProt Q9UNP9 1-83)
T1 sequence (looked up): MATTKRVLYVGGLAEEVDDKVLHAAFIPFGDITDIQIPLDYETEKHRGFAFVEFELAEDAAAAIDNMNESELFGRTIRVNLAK
Assay: NMR titration

B1: KMT2A PHD3 finger (1565–1627) (domain or fragment, UniProt Q03164 1565-1627, looked up)
chain: KGNFCPLCDKCYDDDDYESKMMQCGKCDRWVHSKCENLSDEMYEILSNLPESVAYTCVNCTER
binding result: binds
